Assay results as given in patent US20220175942A1 (published 2022).
Where two headings read alike, the source gives them in different places.

B1: P1156_IXORI (other)
chain: ADDDNELFTVQYCGMNCTKDEGGTWTGCTGKKEGCKCYHESGKNYGLCLSTEYTDFSQYGNPSDSEIEAAKPKRSDTLSH
B2: P1243_AMBAM (other)
chain: RNHTEDNSTEYYDYEEARCACPARHLNNTNGTVLKLLGCHYFCNGTLCTAPDGYPCYNLTAQQVRTLTTYPNTSCAVGVCMKGTCVKNGTMEQCFKTP
B3: CCL25_HUMAN (ligand)
chain: QGVFEDCCLAYHYPIGWAVLRRAWTYRIQEVSGSCNLPAAIFYLPKRHRKVCGNPKSREVQRAMKLLDARNKVFAKLHHNTQTFQAGPHAVKKLSSGNSKLSSSKFSNPISSSKRNVSLLISANSGL
B4: P991_AMBCA (other)
chain: ENGEGTTQPDYDNSTDYYNYEDFKCTCPAPHLNNTNGTVMKPIGCYYTCNVTRCTAPDTYPCYNLTEHQAKNLTTSPTTLCAVGNCDHGICVPNGTKELCFKAPNLEE
B5: P943_IXORI (other)
chain: RSKQPTASQSSKNSIKAEFCDTNCTQGTNGAWSGCSEGCFCVHVGNNTKGRCMKLSSDYDYTTQ
B6: CCL22_HUMAN (ligand)
chain: GPYGANMEDSVCCRDYVRYRLPLRVVKHFYWTSDSCPRPGVVLLTFRDKEICADPRVPWVKMILNKLSQ
B7: CCL18_HUMAN (ligand)
chain: AQVGTNKELCCLVYTSWQIPQKFIVDYSETSPQCPKPGVILLTKRGRQICADPNKKWVQKYISDLKLNA
B8: CCL3_HUMAN (ligand)
chain: SLAADTPTACCFSYTSRQIPQNFIADYFETSSQCSKPGVIFLTKRSRQVCADPSEEWVQKYVSDLELSA

Assays:
[1] = molecular target: CXCL8_HUMAN (human, UniProt P10145 28-99); test: BLI
[2] = molecular target: CXCL1_HUMAN; test: BLI
[3] = molecular target: CXCL3_HUMAN; test: BLI
[4] = molecular target: B6; test: BLI
[5] = molecular target: CCL16_HUMAN; test: BLI
[6] = molecular target: CCL13_HUMAN; test: BLI
[7] = molecular target: CCL14_HUMAN; test: BLI
[8] = molecular target: CCL21_HUMAN; test: BLI
[9] = molecular target: CCL4L1_HUMAN; test: BLI
[10] = molecular target: CCL7_HUMAN; test: BLI
[11] = molecular target: CCL3L1_HUMAN; test: BLI
[12] = molecular target: CCL23_HUMAN; test: BLI
[13] = molecular target: CCL24_HUMAN; test: BLI
[14] = molecular target: CCL27_HUMAN; test: BLI
[15] = molecular target: T1, CCL17_HUMAN (human, UniProt Q92583 24-94); test: BLI
T1 chain: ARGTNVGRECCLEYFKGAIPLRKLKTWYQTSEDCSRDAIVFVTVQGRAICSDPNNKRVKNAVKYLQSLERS

[16] = molecular target: T2, CCL8_HUMAN (human, UniProt P80075 24-99); test: BLI
T2 chain: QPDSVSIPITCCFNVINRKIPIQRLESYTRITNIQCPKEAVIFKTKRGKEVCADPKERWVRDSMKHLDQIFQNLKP

[17] = molecular target: CCL20_HUMAN (human, UniProt P78556 27-96); test: BLI
[18] = molecular target: T3, CCL19_HUMAN (human, UniProt Q99731 22-98); test: BLI
T3 chain: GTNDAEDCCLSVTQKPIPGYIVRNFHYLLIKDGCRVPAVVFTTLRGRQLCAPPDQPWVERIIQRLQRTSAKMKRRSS

[19] = molecular target: T4, CCL5_HUMAN (human, UniProt P13501 24-91); test: BLI
T4 chain: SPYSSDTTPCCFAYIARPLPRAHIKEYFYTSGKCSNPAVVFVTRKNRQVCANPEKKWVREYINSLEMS

[20] = molecular target: T5, CCL4 (human, UniProt P13236 24-92); test: BLI
T5 chain: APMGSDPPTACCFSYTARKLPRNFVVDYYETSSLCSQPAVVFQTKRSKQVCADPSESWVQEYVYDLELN

[21] = molecular target: CCL11_HUMAN (human, UniProt P51671 24-97); test: BLI
[22] = molecular target: T6, CCL1_HUMAN (human, UniProt P22362 24-96); test: BLI
T6 chain: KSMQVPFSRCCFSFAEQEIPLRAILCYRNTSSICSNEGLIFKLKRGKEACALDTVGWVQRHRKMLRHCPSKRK

[23] = molecular target: B8; test: BLI
[24] = molecular target: T7, CCL15_HUMAN (human, UniProt Q16663 22-113); test: BLI
T7 chain: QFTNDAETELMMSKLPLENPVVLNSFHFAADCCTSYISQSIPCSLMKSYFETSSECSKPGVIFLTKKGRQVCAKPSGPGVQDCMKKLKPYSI

[25] = molecular target: B7; test: BLI
[26] = molecular target: EVASIN4; test: -; previously described evasin
[27] = molecular target: CCL2_HUMAN (human, UniProt P13500 24-99); test: BLI
[28] = molecular target: CXCL3_HUMAN; test: BLI; remark: listed apart in the source
[29] = molecular target: CXCL1_HUMAN; test: BLI; remark: listed apart in the source
[30] = molecular target: EVASIN1; test: -; previously described evasin
[31] = molecular target: EVASIN4; test: -; previously described evasin; remark: listed apart in the source

Chain of CCL11_HUMAN (P51671 24-97): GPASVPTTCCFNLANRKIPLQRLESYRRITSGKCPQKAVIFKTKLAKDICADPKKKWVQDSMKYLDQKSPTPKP
Chain of CCL2_HUMAN (P13500 24-99): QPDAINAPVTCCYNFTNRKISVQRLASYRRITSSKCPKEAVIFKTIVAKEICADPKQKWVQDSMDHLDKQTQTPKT
Chain of CCL20_HUMAN (P78556 27-96): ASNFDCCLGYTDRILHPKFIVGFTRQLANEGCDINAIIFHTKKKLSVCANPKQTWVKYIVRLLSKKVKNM
Chain of CXCL8_HUMAN (P10145 28-99): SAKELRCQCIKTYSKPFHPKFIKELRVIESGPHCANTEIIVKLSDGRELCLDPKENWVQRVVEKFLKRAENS

B1 gave a Kd [1] of 4.6 nM, a Kd [2] of 3.25 nM and a Kd [3] of 81 nM.

Binder B2 has a Kd [4] of 22.3 nM, a Kd [5] of 0.926 nM and a Kd [6] of 0.788 nM. It also gave a Kd [7] of 0.816 nM, a Kd [8] of 6.54 nM and a Kd [9] of 35.4 nM. For the same binder, the Kd [10] was 8.66 nM, the Kd [11] was 9.61 nM and the Kd [12] was 6.62 nM. It also gave a Kd [13] of 7.39 nM, a Kd [14] of 15.1 nM and a Kd [15] of 0.734 nM. The Kd [16] was 21.9 nM, the Kd [17] was 8.34 nM and the Kd [18] was 0.592 nM. It also gave a Kd [19] of 1.74 nM, a Kd [20] of 15.3 nM and a Kd [21] of 6.03 nM. For the same binder, the Kd [22] was 21.3 nM, the Kd [23] was 5.3 nM and the Kd [24] was 5.05 nM. The Kd [25] was 0.00501 nM.

Work on B3 yielded a Kd [26] of 69.6 nM.

Work on B4 yielded a Kd [4] of 3.97 nM, a Kd [5] of 1.28 nM and a Kd [6] of 0.419 nM. For the same binder, the Kd [7] was 0.43 nM, the Kd [9] was 0.827 nM and the Kd [10] was 0.514 nM. It also gave a Kd [11] of 1.4 nM, a Kd [12] of 5.58 nM and a Kd [13] of 6.54 nM. It also gave a Kd [14] of 38.9 nM, a Kd [15] of 7.66 nM and a Kd [16] of 8.79 nM. It also gave a Kd [27] of 12.2 nM, a Kd [18] of 14.4 nM and a Kd [19] of 1.47 nM. The Kd [20] was 5.82 nM, the Kd [21] was 3.43 nM and the Kd [23] was 1.08 nM. For the same binder, the Kd [24] was 159 nM and the Kd [25] was 0.209 nM.

With B5 the Kd [28] was 270 nM and the Kd [29] was 24 nM.

B6 showed a Kd [26] of 0.43 nM.

In the case of B7, the Kd [30] is reported as 3 nM and the Kd [31] is reported as 0.03 nM.

In the case of B8, the Kd [30] is reported as 0.1 nM and the Kd [31] is reported as 0.06 nM.
